Values quoted from earlier work, collected in publication PMC4488278.

Target: EGFR (Homo sapiens) (UniProt P00533)

Kd: 1 nM
Substance: EGF (from UniProt P01133)
